From IntAct's records for PubMed 28620713

B1: Cytochrome P450 1B1 (Homo sapiens), Q16678 (parent)
chain: MGTSLSPNDPWPLNPLSIQQTTLLLLLSVLATVHVGQRLLRQRRRQLRSAPPGPFAWPLIGNAAAVGQAAHLSFARLARRYGDVFQIRLGSCPIVVLNGERAIHQALVQQGSAFADRPAFASFRVVSGGRSMAFGHYSEHWKVQRRAAHSMMRNFFTRQPRSRQVLEGHVLSEARELVALLVRGSADGAFLDPRPLTVVAVANVMSAVCFGCRYSHDDPEFRELLSHNEEFGRTVGAGSLVDVMPWLQYFPNPVRTVFREFEQLNRNFSNFILDKFLRHCESLRPGAAPRDMMDAFILSAEKKAAGDSHGGGARLDLENVPATITDIFGASQDTLSTALQWLLLLFTRYPDVQTRVQAELDQVVGRDRLPCMGDQPNLPYVLAFLYEAMRFSSFVPVTIPHATTANTSVLGYHIPKDTVVFVNQWSVNHDPLKWPNPENFDPARFLDKDGLINKDLTSRVMIFSVGKRRCIGEELSKMQLFLFISILAHQCDFRANPNEPAKMNFSYGLTIKPKSFKVNVTLRESMELLDSAVQNLQAKETCQ

Variants of: B1
Conditions: with tie2_human TEK

**Q.** Which “effect of a mutation on the interaction” value does the source give for MGTSLSPNDPWPLNPLSIQQTTLLLLLSVLATVHVGQRLLRQRRRQLRSAPPGPFAWPLIGNAAAVGQAAHLSFARLARRYGDVFQIRLGSCPIVVLNGERAIHQALVQQGSAFADRPAFASFRVVSGGRSMAFGHYSEHWKVQRRAAHSMMRNFFTRQPRSRQVLEGHVLSEARELVALLVRGSADGAFLDPRPLTVVAVANVMSAVCFGCRYSHDDPEFRELLSHNKEFGRTVGAGSLVDVMPWLQYFPNPVRTVFREFEQLNRNFSNFILDKFLRHCESLRPGAAPRDMMDAFILSAEKKAAGDSHGGGARLDLENVPATITDIFGASQDTLSTALQWLLLLFTRYPDVQTRVQAELDQVVGRDRLPCMGDQPNLPYVLAFLYEAMRFSSFVPVTIPHATTANTSVLGYHIPKDTVVFVNQWSVNHDPLKWPNPENFDPARFLDKDGLINKDLTSRVMIFSVGKRRCIGEELSKMQLFLFISILAHQCDFRANPNEPAKMNFSYGLTIKPKSFKVNVTLRESMELLDSAVQNLQAKETCQ [E229K] here?
**A.** disrupting interaction strength

Variants of: B1
Conditions: with tie2_human TEK
Remark: another data set of the same source

**Q.** Which “effect of a mutation on the interaction” value does the source give for MGTSLSPNDPWPLNPLSIQQTTLLLLLSVLATVHVGQRLLRQRRRQLRSAPPGPFAWPLIGNAAAVGQAAHLSFARLARRYGDVFQIRLGSCPIVVLNGERAIHQALVQQGSAFADRPAFASFRVVSGGRSMAFGHYSEHWKVQRRAAHSMMRNFFTRQPRSRQVLEGHVLSEARELVALLVRGSADGAFLDPRPLTVVAVANVMSAVCFGCRYSHDDPEFRELLSHNKEFGRTVGAGSLVDVMPWLQYFPNPVRTVFREFEQLNRNFSNFILDKFLRHCESLRPGAAPRDMMDAFILSAEKKAAGDSHGGGARLDLENVPATITDIFGASQDTLSTALQWLLLLFTRYPDVQTRVQAELDQVVGRDRLPCMGDQPNLPYVLAFLYEAMRFSSFVPVTIPHATTANTSVLGYHIPKDTVVFVNQWSVNHDPLKWPNPENFDPARFLDKDGLINKDLTSRVMIFSVGKRRCIGEELSKMQLFLFISILAHQCDFRANPNEPAKMNFSYGLTIKPKSFKVNVTLRESMELLDSAVQNLQAKETCQ [E229K] here?
**A.** with no effect

Variants of: B1
Conditions: with tie2_human TEK
Remark: another data set of the same source

**Q.** Which “effect of a mutation on the interaction” value does the source give for MGTSLSPNDPWPLNPLSIQQTTLLLLLSVLATVHVGQRLLRQRRRQLRSAPPGPFAWPLIGNAAAVGQAAHLSFARLARRYGDVFQIRLGSCPIVVLNGERAIHQALVQQGSAFADRPAFASFRVVSGGRSMAFGHYSEHWKVQRRAAHSMMRNFFTRQPRSRQVLEGHVLSEARELVALLVRGSADGAFLDPRPLTVVAVANVMSAVCFGCRYSHDDPEFRELLSHNEEFGRTVGAGSLVDVMPWLQYFPNPVRTVFREFEQLNRNFSNFILDKFLRHCESLRPGAAPRDMMDAFILSAEKKAAGDSHGGGARLDLENVPATITDIFGASQDTLSTALQWLLLLFTRYPDVQTRVQAELDQVVGRDHLPCMGDQPNLPYVLAFLYEAMRFSSFVPVTIPHATTANTSVLGYHIPKDTVVFVNQWSVNHDPLKWPNPENFDPARFLDKDGLINKDLTSRVMIFSVGKRRCIGEELSKMQLFLFISILAHQCDFRANPNEPAKMNFSYGLTIKPKSFKVNVTLRESMELLDSAVQNLQAKETCQ [R368H] here?
**A.** decreasing interaction strength

**Q.** For MGTSLSPNDPWPLNPLSIQQTTLLLLLSVLATVHVGQRLLRQRRRQLRSAPPGPFAWPLIGNAAAVGQAAHLSFARLARRYGDVFQIRLGSCPIVVLNGERAIHQALVQQGSAFPDRPAFASFRVVSGGRSMAFGHYSEHWKVQRRAAHSMMRNFFTRQPRSRQVLEGHVLSEARELVALLVRGSADGAFLDPRPLTVVAVANVMSAVCFGCRYSHDDPEFRELLSHNEEFGRTVGAGSLVDVMPWLQYFPNPVRTVFREFEQLNRNFSNFILDKFLRHCESLRPGAAPRDMMDAFILSAEKKAAGDSHGGGARLDLENVPATITDIFGASQDTLSTALQWLLLLFTRYPDVQTRVQAELDQVVGRDRLPCMGDQPNLPYVLAFLYEAMRFSSFVPVTIPHATTANTSVLGYHIPKDTVVFVNQWSVNHDPLKWPNPENFDPARFLDKDGLINKDLTSRVMIFSVGKRRCIGEELSKMQLFLFISILAHQCDFRANPNEPAKMNFSYGLTIKPKSFKVNVTLRESMELLDSAVQNLQAKETCQ [A115P], which “effect of a mutation on the interaction” value is on record?
**A.** disrupting interaction strength
